Measurements published in US20260242730A1 (POINTLOMA BIOSCIENCES, published 2026).

T1: recombinant human TROP2 protein (human, UniProt P09758 27-274)
T1 sequence (looked up): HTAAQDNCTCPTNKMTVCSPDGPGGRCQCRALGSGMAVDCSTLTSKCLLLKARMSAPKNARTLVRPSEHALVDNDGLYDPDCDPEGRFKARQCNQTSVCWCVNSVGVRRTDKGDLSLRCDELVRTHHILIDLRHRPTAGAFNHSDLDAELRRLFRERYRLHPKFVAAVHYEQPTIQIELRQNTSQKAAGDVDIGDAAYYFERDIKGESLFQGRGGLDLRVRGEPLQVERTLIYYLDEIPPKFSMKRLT

T2: recombinant human TROP2 protein (human, UniProt P09758 27-274)
T2 chain: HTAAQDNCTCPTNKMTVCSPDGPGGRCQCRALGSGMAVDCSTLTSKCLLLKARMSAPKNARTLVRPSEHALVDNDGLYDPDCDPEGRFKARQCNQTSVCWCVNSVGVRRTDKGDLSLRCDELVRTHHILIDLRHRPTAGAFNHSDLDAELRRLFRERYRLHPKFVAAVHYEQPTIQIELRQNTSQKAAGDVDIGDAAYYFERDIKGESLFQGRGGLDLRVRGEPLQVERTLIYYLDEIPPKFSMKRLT


What was measured:
[1] = molecular target: T1, recombinant human TROP2 protein; assay: flow cytometry, titration of TROP2 protein on CAR γδ T cells
[2] = molecular target: T2, recombinant human TROP2 protein; assay: binding of TROP2 protein to binder-expressing γδ T cells
[3] = molecular target: T3, human PD-L1 (antigen of panning and phage ELISA) (human, UniProt Q9NZQ7 19-238, biotinylated (panning antigen)); assay: phage ELISA of clones panned on biotinylated human PD-L1
T3 construct: also called biotinylated human PD-L1
T3 sequence (Q9NZQ7 19-238 limits assumed): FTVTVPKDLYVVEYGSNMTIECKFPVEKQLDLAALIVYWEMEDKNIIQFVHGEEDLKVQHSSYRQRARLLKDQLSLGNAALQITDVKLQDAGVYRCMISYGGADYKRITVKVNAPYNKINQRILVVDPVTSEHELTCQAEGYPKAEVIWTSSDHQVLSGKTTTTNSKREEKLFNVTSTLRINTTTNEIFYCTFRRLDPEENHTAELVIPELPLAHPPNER
From the text: The animal boosted four times every two weeks. After confirming the serum titer against PD-L1, PBMC was isolated and used for phage display library construction. Anti-PD-L1 binders were isolated with the immunized phage display library using liquid phase Biopanning on biotinylated human PD-L1. Stringency was increased during successive rounds by decreasing antigen concentration, increasing the number and duration of washes, and/or changing the duration of selections. The panning process was repeated three to four times until the output phage enrichment was identified. The eluted phages were diluted and spread on a petri dish to grow single colonies. Individual phage clones were selected and amplified. 384 single colonies were selected and tested for specificity by ELISA. […] After sequencing the positive clones, three unique sequences were obtained based on amino acid sequences.

Binder	binding result [1]	EC50 [2] [nM]	binding result [3]
TROP2 CAR with anti-TROP2 #PL02 scFv (VL-linker-VH) adopted from monoclonal antibody hRS7, on γδ T cells (other, not shown: small tags and cut ends, CAR on γδ T cells) DIQLTQSPSSLSASVGDRVSITCKASQDVSIAVAWYQQKPGKAPKLLIYSASYRYTGVPDRFSGSGSGTDFTLTISSLQPEDFAVYYCQQHYITPLTFGAGTKVEIKGGGGSGGGGSGGGGSQVQLQQSGSELKKPGASVKVSCKASGYTFTNYGMNWVKQAPGQGLKWMGWINTYTGEPTYTDDFKGRFAFSLDTSVSTAYLQISSLKADDTAVYFCARGGFGSSYWYFDVWGQGSLVTVSS	binds	6.81	
anti-PD-L1 #PD2 VHH (VHH) VHH: DVQLQESGGGLVEPGGSLRLSCAASGFTFNHYGMSWVRQAPGKGLQWVSTLFTTGSSQYANSVKGRFTISRDAAENTLYLHMNNLKPEDTAVYFCAKGVGLGSERGPGTQVTVSS			binds

Results, then the binder that gave them:

binding result [1]	EC50 [2] [nM]	binding result [3]	Binder
		binds	anti-PD-L1 #PD3 VHH (VHH) VHH: DVQLQESGGGLVQAGDSLGLSCAASGRAFSLFEMAWYRQAPGKAREFVAAIMWRGGHTVYADSVKGRSTISSDNTKNTVYLQMNSLKPEDTAIYYCRGKVVGSDYWGQGTQVTVSS
		binds	anti-PD-L1 #PD1 VHH (VHH) VHH: DVQLQESGGGLVQAGGSLRLSCAASESIASINVMGWYRQAPGKQRELVAIITNRGTTSYPDSVKGRFTISRDNGKNTVYLQMNTLKPEDTAVYYCNAPWTDGINYWGKGTQVTVSS
